This note sets out measurements from patent publication US20170275356A1 (Eli Lilly, published 2017).

Assay [1] addresses T1, human IL-23 (human, UniProt P29460 23-328).
T1 sequence 1: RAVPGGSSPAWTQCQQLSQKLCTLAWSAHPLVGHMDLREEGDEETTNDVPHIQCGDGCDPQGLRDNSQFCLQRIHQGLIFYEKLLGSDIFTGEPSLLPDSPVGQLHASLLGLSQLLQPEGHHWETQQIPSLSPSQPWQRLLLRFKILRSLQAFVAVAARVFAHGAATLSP
T1 sequence 2: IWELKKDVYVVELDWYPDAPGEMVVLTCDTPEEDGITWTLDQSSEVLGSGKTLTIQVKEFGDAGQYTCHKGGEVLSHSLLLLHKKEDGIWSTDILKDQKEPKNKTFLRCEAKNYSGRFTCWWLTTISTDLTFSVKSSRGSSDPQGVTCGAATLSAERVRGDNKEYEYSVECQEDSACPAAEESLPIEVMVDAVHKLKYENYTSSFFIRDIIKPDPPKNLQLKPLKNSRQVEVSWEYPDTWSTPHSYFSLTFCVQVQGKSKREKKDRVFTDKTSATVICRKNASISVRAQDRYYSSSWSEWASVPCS
Description: cell-based or functional assay.

Assay [2] addresses cynomolgus monkey IL-23 (cynomolgus monkey). Briefly: cell-based or functional assay.
For assay [3], the target named is T1, human IL-23. Description: cell-based or functional assay. This is another data set of the same source.
Assay [4] concerns the target T2, human IL-27 (human, UniProt Q8NEV9 29-243; Q14213 21-229).
T2 construct: subunit make-up is from general knowledge
T2 sequence (looked up) 1: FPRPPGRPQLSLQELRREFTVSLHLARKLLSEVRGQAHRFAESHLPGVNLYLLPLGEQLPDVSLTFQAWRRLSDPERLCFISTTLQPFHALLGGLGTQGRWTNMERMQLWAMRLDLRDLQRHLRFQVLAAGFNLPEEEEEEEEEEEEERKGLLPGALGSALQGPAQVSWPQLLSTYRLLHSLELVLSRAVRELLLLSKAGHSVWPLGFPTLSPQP
T2 sequence (looked up) 2: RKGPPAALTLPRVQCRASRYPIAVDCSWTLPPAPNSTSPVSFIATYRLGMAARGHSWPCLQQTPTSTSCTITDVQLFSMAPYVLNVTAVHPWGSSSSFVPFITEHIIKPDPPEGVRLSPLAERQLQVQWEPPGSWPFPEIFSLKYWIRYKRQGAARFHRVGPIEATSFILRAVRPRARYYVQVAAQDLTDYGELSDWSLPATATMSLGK
Briefly: SPR (BIAcore), Antibody I captured on Protein A, 37 °C. The protocol:
(§1) Antibody affinity (KD) to human, cynomolgus monkey or rabbit IL-23 is determined using a BIAcore Biosensor 2000 and BIAevaluation software with a 1:1 binding with mass transfer model. A capture protein (Protein A, Calbiochem) is coupled via free amine groups to carboxyl groups on flow cells 1 and 2 of a CM4 biosensor chip using a mixture of N-ethyl-N-(dimethylaminopropyl)-carbodiimide (EDC) and N-hydroxysuccinimide (NHS). Flow cells are monitored with a flow rate of 80 μL/minute using a buffer containing 0.01 M HEPES, pH 7.4, 150 mM NaCl, 0.005% surfactant P20. Antibody I is captured on flow cell 2 to yield a total of 40 to 60 response units (RU). Multiple cycles of increasing concentrations of IL-23 are then injected over flow cells 1 and 2 (0.62 nM to 30 nM for human and monkey IL-23 and 30 nM to 240 nM for rabbit IL-23) followed by a regeneration step using glycine-HCl (pH 1.5) between each cycle. Flow cell 1 is used as a control to monitor non-specific binding of IL-23 and the data reflects flow cell 2 minus flow cell 1. Each cycle includes an antibody capture step followed by injection of IL-23 at one concentration with a 30 minute dissociation period, then regeneration. Two cycles where buffer is injected in place of IL-23, serve as a control for baseline subtraction and correct for drift associated with the dissociation of Antibody I from the protein A surface. Affinity is measured at 37 ° C. The assay is performed 2 times with human, monkey or rabbit IL-23. Antibody I is tested 2 times each with mouse IL-23 at 333 nM, rat IL-23 at 200 nM, human IL-12 at 333 nM, human IL-27 at 500 nM or human IL-35 at 833 nM.
(§2) Antibody I produces a concentration-dependent binding response with human, cynomolgus monkey, and rabbit IL-23 using this method. Saturation of binding of IL-23 is attained at a concentration of 30 nM (human and monkey) and 240 nM (rabbit) using […] of Antibody I captured on the chip surface.

Assay [5] deals with T3, human IL-12 (human, UniProt P29459 23-219; P29460 23-328).
T3 construct: construct not described
T3 sequence (looked up) 1: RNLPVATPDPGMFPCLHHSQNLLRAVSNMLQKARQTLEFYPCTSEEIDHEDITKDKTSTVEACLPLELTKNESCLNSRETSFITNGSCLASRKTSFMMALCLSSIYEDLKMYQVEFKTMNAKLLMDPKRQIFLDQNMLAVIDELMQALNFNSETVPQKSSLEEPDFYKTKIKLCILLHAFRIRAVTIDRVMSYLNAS
T3 sequence (looked up) 2: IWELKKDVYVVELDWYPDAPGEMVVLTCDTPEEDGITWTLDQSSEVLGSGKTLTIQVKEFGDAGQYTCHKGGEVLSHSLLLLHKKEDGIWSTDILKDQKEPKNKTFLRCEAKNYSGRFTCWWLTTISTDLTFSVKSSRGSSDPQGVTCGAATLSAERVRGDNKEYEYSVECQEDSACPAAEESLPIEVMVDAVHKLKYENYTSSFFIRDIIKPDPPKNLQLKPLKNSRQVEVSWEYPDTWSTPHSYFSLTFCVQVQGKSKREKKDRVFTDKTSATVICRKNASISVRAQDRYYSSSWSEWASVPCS
The description is as above. The protocol:
as §1, §2

The target of assay [6] is T4, mouse IL-23 (mouse, UniProt Q9EQ14 22-196; P43432 23-335).
T4 construct: Construct not described
T4 sequence (looked up) 1: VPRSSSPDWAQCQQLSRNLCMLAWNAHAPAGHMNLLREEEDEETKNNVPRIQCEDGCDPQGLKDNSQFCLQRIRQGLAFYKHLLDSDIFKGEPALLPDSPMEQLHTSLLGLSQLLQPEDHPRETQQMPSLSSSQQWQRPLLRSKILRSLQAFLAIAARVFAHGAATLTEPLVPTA
T4 sequence (looked up) 2: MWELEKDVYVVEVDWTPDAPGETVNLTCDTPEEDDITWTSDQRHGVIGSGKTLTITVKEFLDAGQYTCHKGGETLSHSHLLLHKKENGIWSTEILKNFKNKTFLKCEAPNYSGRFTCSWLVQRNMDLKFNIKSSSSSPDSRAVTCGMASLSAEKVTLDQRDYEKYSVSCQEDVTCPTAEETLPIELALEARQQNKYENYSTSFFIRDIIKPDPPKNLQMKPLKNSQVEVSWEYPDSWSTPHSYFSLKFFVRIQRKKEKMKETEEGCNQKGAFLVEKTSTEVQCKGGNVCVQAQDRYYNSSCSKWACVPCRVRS
Described as above. The protocol: as §1, §2

The target in assay [7] is T5, human IL-35 (human, UniProt P29459 23-219; Q14213 21-229, limits assumed).
T5 construct: subunit make-up is from general knowledge
T5 sequence (looked up) 1: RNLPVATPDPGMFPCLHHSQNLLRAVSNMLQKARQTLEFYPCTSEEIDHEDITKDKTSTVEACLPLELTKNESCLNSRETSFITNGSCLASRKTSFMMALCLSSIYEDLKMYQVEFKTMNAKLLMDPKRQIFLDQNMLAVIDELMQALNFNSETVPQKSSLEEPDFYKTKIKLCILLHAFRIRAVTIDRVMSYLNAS
T5 sequence (looked up) 2: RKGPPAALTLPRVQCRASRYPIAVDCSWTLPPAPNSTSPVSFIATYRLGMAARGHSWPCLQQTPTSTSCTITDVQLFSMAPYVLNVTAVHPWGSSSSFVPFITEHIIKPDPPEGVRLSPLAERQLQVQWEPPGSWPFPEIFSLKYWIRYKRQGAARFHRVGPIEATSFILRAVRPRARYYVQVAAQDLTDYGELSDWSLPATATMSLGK
The description is as above. The protocol: as §1, §2

The target of assay [8] is T1, human IL-23. Briefly: SPR (BIAcore 2000), Antibody I captured on Protein A, IL-23 injected, 37 °C, n=2. The protocol: as §1
(§3) The on-rate (kₒₙ) and off-rate (koff) for each antigen are evaluated using a 1:1 binding with mass transfer model. The affinity (KD) is calculated from the binding kinetics according to the relationship: KD=koff/kₒₙ.
A general note: SPR reads the build-up and loss of mass on a sensor chip optically.

Assay [9] deals with T6, cynomolgus monkey IL-23 (cynomolgus monkey).
T6 construct: Construct not described
The description is as above. The protocol:
as §1, §3

Assay [10] addresses T7, rabbit IL-23 (rabbit).
T7 construct: Construct not described
Described as above. The protocol:
as §1, §3

Several values for one entry are separate records, joined by “and”; a condition that tells them apart may be missing. Equal values may be shown once.

B1: Antibody I (antibody, human IgG4 S228P, kappa, F234A L235A, V domains shown)
VH: QVQLVQSGAEVKKPGSSVKVSCKASGYKFTRYVMHWVRQAPGQGLEWMGYINPYNDGTNYNEKFKGRVTITADKSTSTAYMELSSLRSEDTAVYYCARNWDTGLWGQGTTVTVSS
VL: DIQMTQSPSSLSASVGDRVTITCKASDHILKFLTWYQQKPGKAPKLLIYGATSLETGVPSRFSGSGSGTDFTLTISSLQPEDFATYYCQMYWSTPFTFGGGTKVEIKR
notes: also called IL-23 Antibody
As to B1, the “IC50 (pM), in vitro IL-23 neutralization assay, IL-17 production by murine splenocytes” value in [1] is 90 pM and 74 pM; in assay [2], 110 pM and 130 pM. Besides, the “fold induction of murine keratin-16 after human IL-23 injection” value in assay [3] turned out to be 1.23 fold induction. Also, the binding result in assay [4] is “no binding (tested: 500 nM)”; in [5], “no binding (tested: 333 nM)”; in [6], “no binding (tested: 333 nM)”; in [7], “no binding (tested: 833 nM)”. Moreover, the Kd in assay [8] was 0.021 nM; in [9], 0.055 nM; in assay [10], 53 nM. In addition, the koff in assay [8] was 5.2e-05 s⁻¹; in [9] it was 7e-05 s⁻¹; in assay [10], 0.00479 s⁻¹. For the same molecule, the results for the kon in [8], in [9] and in [10] were 2.43e+06 M⁻¹ s⁻¹, 1.28e+06 M⁻¹ s⁻¹ and 90000 M⁻¹ s⁻¹, respectively.

In general, Kd refers to the concentration at which binding is half-saturated. By koff is commonly meant the first-order rate constant of dissociation. What is called kon is a measure of how fast the partners come together.
